Assay results published in the DeepSol protein solubility set.

Assay: soluble on expression in E. coli; label from the status in PepcDB or PDB records

Sequence	soluble on expression in E. coli
MTKTLPKDFIFGGATAAYQAEGATHTDGKGPVAWDKYLEDNYWYTAEPASDFYHKYPVDLELAEEYGVNGIRISIAWSRIFPTGYGEVNEKGVEFYHKLFAECHKRHVEPFVTLHHFDTPEALHSNGDFLNRENIEHFIDYAAFCFEEFPEVNYWTTFNEIGPIGDGQYLVGKFPPGIKYDLAKVFQSHHNMMVSHARAVKLYKDKGYKGEIGVVHALPTKYPYDPENPADVRAAELEDIIHNKFILDATYLGHYSDKTMEGVNHILAENGGELDLRDEDFQALDAAKDLNDFLGINYYMSDWMQAFDGETEIIHNGKGEKGSSKYQIKGVGRRVAPDYVPRTDWDWIIYPEGLYDQIMRVKNDYPNYKKIYITCNGLGYKDEFVDNTVYDDGRIDYVKQHLEVLSDAIADGANVKGYFIWSLMDVFSWSNGYEKRYGLFYVDFDTQERYPKKSAHWYKKLAETQVIE	soluble
MTKVTEHLEKQLAENRVKQEEARRAREEEKQRSDNAFNNAERAFERKLEEQRKENQENQKELELEMDNSRLKHEMLYREKQKEHEDVMGAMRNASSAERSAAANMHEKELNLLRKTHESEMKNCEVQMEAIRQKGEREVRDVEDQMAKLHLERGAELDKHHKKMLKMVEKSHEDCTREKVKQHALKMLEMKNEGQRKAIEHKIVMEKLEQARGMSQRLAVNEANREVYRLFMAIMEPVNEARSNLGDIKALCDNNGEDYEDSDTACAEYYSSGIGNSRSIFDIRTNAFRDFVLNQPNCDHELVIACQTAINSMKKPMESTTIRSACTTLPRFMGEQRHLRITAILQNIDDLTSTLEAISDDVRLNFVSWKQLEIVEAVVEQKTIEKE	soluble
MTKYRLHYFNARGYAEASRAMFHMAGVEFEDVRYEIDDWIKEENTLKNEMPFGQMPVLEVDGEKIPQSVAIARFVANQLGFAGQTPVEKAWADAFTDLYKDFLIDMKPWAMIAFGYPGAAGDRDELKKTSLDPAKEKYFKLLSKRLEKSKSGFLLDSGISFPDLFFFETTTSLIELEKGFLGTDFPVVNAYFKRIAEHPKLKPYLETRPYSSK	not soluble
MTLKFSVERLVDSEKESEEADVEEQNNLKKLEEDEEDDELCEKSGKNEPLSQTLSYFDVLLPHVQMACSNPFISGIGASGSGDQNLNTGAGGSVWQHPWLELLQSTTAAQFGDVTAGLFLQPLRKNKRIRTAFSASQLIQLEKAFEGNHYVVGNERKQLAAKLSLTETQVKVWFQNRRTKHKRVRLEGSDPNAPMSNDEDDEDDKKSVS	not soluble
MTLKLIENLQKLGFTGNEAKVYSSLVCLKQAKASEIAENAGVPRPKIYGTLRTMEKKGYVRIIEGEPTIFCCIQPEELILRLKSDFLLFLRETASELNSLNPGNSDFVSEGFYRERIKV	not soluble
MTLPRFDQIRPKIEQHIREVKDFPKKGINFRDIMPLFTNPQLVNELCVVIADHVRHTVGHVDSVAGLEARGFLFGPQVAIQLGVPFVPIRKKGKLPGATIEASYVKEYGEDRVEIQEGAIKNGDIVFLIDDLLATGGTLRAATDLVVKAGGKVGEAFVLIELAPLNGRSKLPDVNLTTLISYDSA	not soluble
MTLPSSCAPLTGISRARLPAWALPDGWPTQANGEPLLADLAFRDGRIAALTPTDQPTPGLWDLAGALTLPGLVEPHAHLDKTFTIERCRPAQAGLLPAIHAMHEDRRHWSRADIQRRASAALARAAANGVTHLRSHIDWFNADAPDAWQEIARLDTVGITLERVALVPLPLFRELAQAEAIARTVANSGERCLLGGFIHSSNWDATAMENLLYSAARWDLDLDLHIDEELSEVSQGLTWLADHLSRHPFPGHICCSHGCALAAGSDEQAAPILRQLAAHGVTLIALPMTNLLLQDATFGRTPRQRGITLLHEAQAAGVATLLGCDNVQDAFCPAGSYDPLDTLACGLFSAQLSDLFDQQSRLICDRAALTGSPADAAPFAVGAAASVVIFPGSDRFTWPLNSAARLVVNHGRLTHRRVWQEEMAHES	not soluble
MTLRCSDVNVEPLPGTAKTGSGFVLLEHAGSWSRDVLDGGTFDPELTDQLKRHLKASGMGLQLIRKPGREGRNVEKHNLFLVFAEASIIEHLVVDAPADVLDLDLSGPGKNNAQRMDDPMLLICTHSKRDVCCAIKGRPLAAAVEPQFGPLHVWEASHTKGHRFAPSMLLMPWNYSYGLLDEAETVQLFQGALDNKLFLPGNRGRGTLDARGQVAEIAVAEAFGEAVAPASLQVEFEDDSVLVTHPDGRTWVVELERIEVDGVVSSCGDQPKTGKAWVARQVTELIG	not soluble
MTLTTTLTTGLALLLAAQALPAPASAAPAAVGSVTIGWADATHELIKITWTETTAAANTLTLHTDDPETAAVRFGTTTADQPNEYLVDPTQLGYTADPRHTSWILVSDGTATTARSVDFDRFHHAQRGAALSFAGDRVRWTAPADTSVDGTPGDPLDLPKAYTYQPMQRVDDDPVGNYECKDTELPATTERTGLVPNPGTAYDLFLTMTNEWGTADVGYLQVGTTQTVTADGPAATAYGATTTIKGHAEGTVMFEQGRPPVCDEVRVDLSNQPLTVQQRTSSTAPWTVVGTVRTTVNGDYTAVVKNPGHRQYRVVRPNTAAFESAWYGGTSGVITVRSLTRVVSAKFIQPVVRLGTRPQAYLWVDPAGTQKAALQFRNAAGAWQGVTYKTLYAGRGLVSFPWNRRGTTRFRWWVPASGGAESVVSPVFTVTVT	not soluble
MTLYSFRLGLLLFCSLLFGCTAPTPAPVSGLGKDYNKVERGSYRGSYYEVKKGDTLYFIAYLTDKDVNDLISYNDLAPPYTIHPGQKIKLWLPNYTPPAYGGTGGAATVAVASSTSASVAKAATTATVAQTVSKSSNTKNVQNGSTNSQNLTKKDPVKTVDQTKTKEYVEPVGKQNVNVNVAKAKPSDEKIAKWLWPTKGRVIKNFSAGDQGNKGIDIAGQRGQAVVATADGTVVYSGNALRGYGNLIIIKHNEHYLSAYAHNDQLLAKEGQTVQAGQKIATMGSSGTNSVRLHFEIRYQGKSVNPKRYLP	not soluble
MTMDTAQLKSQIQQYLVESGNYELISNELKARLLQEGWVDKVKDLTKSEMNINESTNFTQILSTVEPKALEMVSDSTRETVLKQIREFLEEIVDTQ	soluble
MTNFKDNDGDGTKLHVVMFPWLAFGHMVPYLELSKLIAQKGHKVSFISTPRNIDRLLPWLPENLSSVINFVKLSLPVGDNKLPEDGEATTDVPFELIPYLKIAYDGLKVPVTEFLESSKPDWVLQDFAGFWLPPISRRLGIKTGFFSAFNGATLGILKPPGFEEYRTSPADFMKPPKWVPFETSVAFKLFECRFIFKGFMAETTEGNVPDIHRVGGVIDGCDVIFVRSCYEYEAEWLGLTQELHRKPVIPVGVLPPKPDEKFEDTDTWLSVKKWLDSRKSKSIVYVAFGSEAKPSQTELNEIALGLELSGLPFFWVLKTRRGPWDTEPVELPEGFEERTADRGMVWRGWVEQLRTLSHDSIGLVLTHPGWGTIIEAIRFAKPMAMLVFVYDQGLNARVIEEKKIGYMIPRDETEGFFTKESVANSLRLVMVEEEGKVYRENVKEMKGVFGDMDRQDRYVDSFLEYLVTNR	soluble
MTNFRPCFLIPCYNHGKTIPAVVESLMSYGYPMIIVDDGSENETKRILEEVTQHNESITLITLAENQGKGGAVIAGIEKAYQQSYSHAIQIDADGQHDLEALPKLIAESQEHPTALISGQPIYDESVPKSRLYGRYATHIWVWIETLSFTIKDSMCGFRSYPIGPTINVLERAVLGRRMDFDTEIMVRMYWNETDIRFINTRVIYPEDGISHFDALWDNVKISWMHTKLFFGMLPRIPSLLKRKPVQEDHWSSHAERGTILGIQFLLWIYSTFGRKVFSLLLKPVMAYYYLRGGSVKDASDDFIQQVNAYARIKGIQLPEKLTTYRHLVSFGETMLDKLAAWRGDFSDKNLTVHGIEHYQTLAQREKGIVLLGSHLGNLELCRALSRRHTHLKINALVFTEHAERFNTVMKTVNPQSEVNVIQVSKIGPDTAILLQQKIDDGEWIVIVGDRTSVTKENRVIWADFLGKPAPFPQGPFMLASILKQPVYLMFGLRDDTQKDPLFDVYLEPFSEQIILPRGKREEALQEVVQNYAQRLEHFTLKAPSQWYNFFNFWQLTGKKDDNLEHHHHHH	soluble
MTNGIFKHSNQSILEDQDHVKKSTVEILMPAYVIGGPIRSIRVDKDRLFVLGMKNHPEVIDLTQMSHGTSLILEKIMSGNRYYTTQISMNQAAELCHVAHELKLVNLLKLVEMDMIRRPSTSMKHAVDALVLALKFGMLEAVNKLIDEIIFEFFNGLGLVGYCKSSTALEMIFDKNEMMLKEEIEVGRLNSEWNEPLPVGQEVVPSLPRGNNAQIPRIMLNVAKERIRSLVARPINSVKNGFAWISAQNLRRRGPRNHQDFPNFPD	not soluble
MTNIFTPIEEALEAYKNGEFLIVMDDEDRENEGDLIMAAELITQEKMAFLVRYSSGYVCVPLSEERANQLELPPMLANRSDRHGTAYTITCDFAEGTTTGISAHDRALTTRSLANPNSKPQDFIKPGHILPLRAVPGLLKKRRGHTEAAVQLSTLAGLQPAGVICELVRDEDGLMMRLDDCIQFGKKHGIKIININQLVEYISK	soluble
MTNITASIVLYNNPIDQIRQCIESMQADTRVHVLLVDNSEKKGGYTGLAADNVEILDAPGNVGFGRGHNLVLGRLAALRSEVHLVVNPDIVVSAGCVQAVADVLRQRKDVTLVGPRVVSPDGALYRSCKLLPTPWNLFARRFAPRQLYAAADARYELEAFGYDRELRLHNLSGAFLAFRSEAFTALGGFDPRYFMYLEDVDICRRAAGLGAVIFLPQAEVVHEHGKGSYRSWRLLREHMRSAILYFNRFGWFVDAERRLLNRETLARVNDMRSVVLEHHHHHH	not soluble
MTNLEIEYKTLLTKNEYNRLLSQMKHVTPVTQTNYYIDTKAFDLKANKMSLRIRTFVNSAELTLKVPEKVGNREYNVPLFLEQAKDMIKHGNLPESTALDIIISKGIKPSALVTFGNLTTVRRETVIPIGKLALDYNLYANTKDYELELEVSDALQGKIDFDSFLSEYHITFKYAKSKVARCINTLKKFNDK	not soluble
MTNLMSALSKLSQALDSKNIGEVLLALQNFDEEFSAEKCEDVFVRCLQEIISWDLTVSLEISETVVRQMMNRLENQAVLEEMCNYIIKQQSSVTVEIAVEIMIEHGWILRTDDCREVWKQIESAKNTEKIEILARRMTANCRILRLSGAPKRFLEKLLKDVIISLNANKVNIPMKFLNELAIVSPFHPILVIEDFKKDSEYFYIPHVVSEETRFHLEVKEFTNFFQIESTYHKEQACQMLQVFNQIYKRMELIPQLEAPEIDKIVEFWLAALRIFNGYGIGMNDITESAKLLEKTASRYSLKSRPLFLKHFLKKISEKKDTNIGLEPQVVATIITTYQRNAFGLRSPEFYEELGEFWALCLKIKYDDVYFATVYFSAVFALAQAQAVFKIKKELCREVYHKILQPMHEQLVDFVKLKQVESNKATSEEEVMRLEHQNIGASYFSILTCTYKNAEDRILEFMKEN	not soluble
MTNLTLDVNIIDFPSIPVAMLPHRCSPELLNYSVAKFIMWRKETGLSPVNQSQTFGVAWDAPATTAPEAFRFDICGSVSEPIPDNRYGVSNGELTGGRYAVARHVGELDDISHTIWGIIRHWLPASGEKMRKAPILFHYTNLAEGVTEQRLETDVYVPLA	not soluble
MTNPGDGAAGAVDCATLDHWRPRLAAIAAAAGQDDAAHDLGHLRRVWGAARAMLQAHPEADALVVLAASYLHDLVNLPKNHPERHLASRQAAAAARERLARAGFPAARLDAVAHAIEAHSFSAGIAPRTIEARIVQDADRLDALGPVGLARMFHVGGSLGRALAHPSDPLAAQRALDDSRYTLDHIEAKLARLPHGMQTEAGRRLGEQRLAWLRDFRAAFAAQWGGGQLRLEHHHHHH	soluble
